Measured values from patent publication US20210017257A1.

Experiments:
MABp1-IgG1 [1] = assay: flow cytometry: S. aureus strain ATCC #25923 incubated with unlabeled MABp1 (negative control), then biotinylated recombinant Fcγ receptor 1, then streptavidin-APC
MABp1-IgG1 [2] = assay: flow cytometry: S. aureus clinical isolate OOX incubated with unlabeled MABp1 (negative control), then biotinylated recombinant Fcγ receptor 1, then streptavidin-APC
[3] = biological target: SpA in the cell wall of Staphylococcus aureus (strain ATCC #25923 and clinical isolate OOX) (Staphylococcus aureus) (UniProt P38507); assay: flow cytometry: S. aureus clinical isolate OOX pre-incubated with human sera for 15 minutes, then biotinylated MABp1-IgG3 (isotype-matched negative control), then streptavidin-APC
[4] = biological target: SpA in the cell wall of Staphylococcus aureus (strain ATCC #25923 and clinical isolate OOX) (Staphylococcus aureus) (UniProt P38507); assay: flow cytometry: S. aureus strain ATCC #25923 by the legend (sheet prints 25935) pre-incubated with human sera for 15 minutes, then biotinylated MABp1-IgG3 (isotype-matched negative control), then streptavidin-APC
[5] = biological target: SpA in the cell wall of Staphylococcus aureus (strain ATCC #25923 and clinical isolate OOX) (Staphylococcus aureus) (UniProt P38507); assay: flow cytometry: S. aureus strain ATCC #25923 incubated with biotinylated antibody (negative control), then streptavidin-APC
[6] = biological target: SpA in the cell wall of Staphylococcus aureus (strain ATCC #25923 and clinical isolate OOX) (Staphylococcus aureus) (UniProt P38507); assay: flow cytometry: S. aureus clinical isolate OOX incubated with biotinylated antibody (negative control), then streptavidin-APC

Sequence of biotinylated recombinant Fcγ receptor 1 (P12314 16-292): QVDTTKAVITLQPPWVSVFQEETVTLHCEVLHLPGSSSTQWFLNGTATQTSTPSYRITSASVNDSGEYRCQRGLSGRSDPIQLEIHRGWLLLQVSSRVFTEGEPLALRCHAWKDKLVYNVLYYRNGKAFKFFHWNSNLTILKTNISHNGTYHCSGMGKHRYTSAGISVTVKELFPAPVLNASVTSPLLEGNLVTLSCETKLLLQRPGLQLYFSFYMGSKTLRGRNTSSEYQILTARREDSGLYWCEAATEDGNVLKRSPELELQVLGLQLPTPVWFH
Sequence of MABp1-IgG3 (antibody) (VH): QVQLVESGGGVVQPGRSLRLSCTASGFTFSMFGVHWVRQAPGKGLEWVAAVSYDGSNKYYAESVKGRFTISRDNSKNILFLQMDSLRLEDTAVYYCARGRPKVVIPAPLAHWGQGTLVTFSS
Sequence of MABp1-IgG3 (antibody) (VL): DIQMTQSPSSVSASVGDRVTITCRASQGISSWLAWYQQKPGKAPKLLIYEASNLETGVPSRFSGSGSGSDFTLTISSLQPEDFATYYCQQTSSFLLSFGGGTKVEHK

## biotinylated recombinant Fcγ receptor 1
MABp1-IgG1 [1]
  Mean:FL4-H: 19.8
MABp1-IgG1 [2]
  Mean:FL4-H: 18.6

## MABp1-IgG3 (antibody)
[3]
  Mean:FL4-H: 19.1
[4]
  Mean:FL4-H: 10.3

## MABp1-IgG1 (antibody)
[5]
  Mean:FL4-H: 46.7
[6]
  Mean:FL4-H: 29.8
